Data from paper PMC3325211, “Mutations in MITF and PAX3 Cause “Splashed White” and Other White Spotting Phenotypes in Horses”.

Biological target: MITF N310S (DNA-binding fragment) (UniProt Q95MD1 112-207, N149S)
Assay: EMSA; 5 mM MgCl2; 2.0 uM protein end point; reduced by about 80%; 20 mM Tris, 50 mM NaCl, 5 mM MgCl2, 1 mM DTT, 33 ug/ml BSA, pH 7.4, on ice 30 min; 6% native PAGE in 0.5x TBE
Conditions: protein: recombinant; (Ni-NTA purified); chain copies: 2; label: radioactive label

MITF N310S (DNA-binding fragment), sequence (Q95MD1 entry or part of it N149S | N310S N310S): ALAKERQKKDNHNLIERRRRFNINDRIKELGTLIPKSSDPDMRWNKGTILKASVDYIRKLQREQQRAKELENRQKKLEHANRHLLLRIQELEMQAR

B1: M-box oligonucleotide (dsDNA)
DNA 1: GGAAAGTTAGTCATGTGCTTTTCAGAAGA
DNA 2: TCTTCTGAAAAGCACATGACTAACTTTCC
binding signal: ~20 % of wild-type binding
